Assay results from the DeepSol protein solubility set.

Test: soluble on expression in E. coli; label from the status in PepcDB or PDB records

| Sequence | soluble on expression in E. coli |
| --- | --- |
| MITFRKRVEIEADPAEVFRVISDPWRITEFWKGTRQVIEDGDFYRIRFAFPAWGLMSFHPDAERMTVLTSYLKGPVRGSKVDAVLVSSGKTVLQTEWNVRLSFYLRPFERRIASHFESGADHAINRIKESVEKDKK | not soluble |
| MSLTSNIFSGCMPALMTPCKADRSPDFDALVKKGKELIEAGMSAVVYCGSMGDWPLLTDEQRMEGVERLVKAGVPVVVGTGAVNTRVAVAHAAHAAKVGARGLMVIPRVLSRGSSVSAQRNHFSDILKAAPSLPAVIYNSPYYGFATRADLFFDLRREFPNLIGFKEFGGLADLRYAAENITSQDDQVTLMVGVDTAVYHGFVNCGATGAITGIGNALPKEVLHLVALCQKAAEGHAEARLRARELEEALAVLSSFDEGSDLVLYYKHLMVLNGEDEYRLHFNETDALSDAQRNYAEAQYELFRTWYADWSTKGEGHHHHHH | soluble |
| MSLRVLKFGGTSVANAERFLRVADILESNARQGQVATVLSAPAKITNHLVAMIEKTISGQDALPNISDAERIFAELLTGLAAAQPGFPLAQLKTFVDQEFAQIKHVLHGISLLGQCPDSINAALICRGEKMSIAIMAGVLEARGHNVTVIDPVEKLLAVGHYLESTVDIAESTRRIAASRIPADHMVLMAGFTAGNEKGELVVLGRNGSDYSAAVLAACLRADCCEIWTDVDGVYTCDPRQVPDARLLKSMSYQEAMELSYFGAKVLHPRTITPIAQFQIPCLIKNTGNPQAPGTLIGASRDEDELPVKGISNLNNMAMFSVSGPGMKGMVGMAARVFAAMSRARISVVLITQSSSEYSISFCVPQSDCVRAERAMQEEFYLELKEGLLEPLAVTERLAIISVVGDGMRTLRGISAKFFAALARANINIVAIAQGSSERSISVVVNNDDATTGVRVTHQMLFNTDQVIEVFVIGVGGVGGALLEQLKRQQSWLKNKHIDLRVCGVANSKALLTNVHGLNLENWQEELAQAKEPFNLGRLIRLVKEYHLLNPVIVDCTSSQAVADQYADFLREGFHVVTPNKKANTSSMDYYHLLRHAAEKSRRKFLYDTNVGAGLPVIENLQNLLNAGDELMKFSGILSGSLSYIFGKLDEGMSFSEATTLAREMGYTEPDPRDDLSGMDVARKLLILARETGRELELADIEIEPVLPAEFNAEGDVAAFMANLSQLDDLFAARVAKARDEGKVLRYVGNIDEDGVCRVKIAEVDGNDPLFKVKNGENALAFYSHYYQPLPLVLRGYGAGNDVTAAGVFADLLRTLSWKLGVEGHHHHHH | soluble |
| MGSDKIHHHHHHMHHRSSPLSRCLNRPSLSENRLVERACLSVGRRPSSSRSRRQHAGRLALLLGTLAPAVVLAQAAPDTVAMPQGINLGGTSFMDGFGSTTPGWTVLEYLRYYDLDAIKNARGDNSPAFRDPQVGVSALLTQLIYVTPYSLGRGSLSFNTIIPLVNYDTSFAADSPVRLRSNGFGMGDISFGPALQMPPVMRDGRVFFFQRFALDLFAPVGKFDRDIAINQGTGFWSIAPQWAFTVQPTDNWEISARINYLYNFRTDRAGGVPPIPGFRFRNGQAGDAVWVNFASSVKVSEQLRVGVNGYFLQQLKDNRTNGERVADSKRMQLYLGPGLSWRVDAKNLFNLNLYIPLDVENSVAGNSVNLMYVHSL | not soluble |
| MSLEALKEVAGEAEGEKSAVITHRNADPDAVGAALVVREVLRALRMNPCLYSPEGISRQSKRLLEAVGEEFGPLCSPDENPLIAVVVDAANLSQIAGAESLFRAARLKVVIDHHERGSIHEEADVALVDPGAGSSSELAVKTAVEAGTPLRPSVATAALGGIVYDTGRFLRASKLSFEAAAHLLSMGADYGKVLEAGRQRGRRDRGDLSLRLAKLKAFSRLKIGRACSELLIAVTHIGSFESDVAKSLVDEAADVAVAVAERTSEFRLSVRVSPLALEKGVTARAIASMLAEKFGGEGGGHDEAGMAHIPYTAAFSAEDMAVKAFNLISGRLGWMCVKTLEKGEGGSHHHHHH | soluble |
| MKIMINPKYEYLREYVERIPKDFETIGTVIHSGRNLIKMITVDGLDINVKRYTIPPLINRIAYAFFRPSKGKRAFVYPEKLLEKGFETPCPIAYIEETKMGLIGHSYFMSIQSPYRYNFCQFGNADIKSCEDVVTAFAEFTARLHEAGILHLDYSPGNILYDKIGEEYHFSLVDINRMHFGEVDIKKGCANFARLWGQTPFFILLGKEYAHSRGMDEEECVRLVLHYRKKFWNRYRRRHQVWFQLDI | not soluble |
| MSSSANSIKVVARFRPQNRVEIESGGQPIVTFQGPDTCTVDSKEAQGSFTFDRVFDMSCKQSDIFDFSIKPTVDDILNGYNGTVFAYGQTGAGKSYTMMGTSIDDPDGRGVIPRIVEQIFTSILSSAANIEYTVRVSYMEIYMERIRDLLAPQNDNLPVHEEKNRGVYVKGLLEIYVSSVQEVYEVMRRGGNARAVAATNMNQESSRSHSIFVITITQKNVETGSAKSGQLFLVDLAGSEKVGKTGASGQTLEEAKKINKSLSALGMVINALTDGKSSHVPYRDSKLTRILQESLGGNSRTTLIINCSPSSYNDAETLSTLRFGMRAKSIKNKAKVNAELSPAELKQMLAKAKTQ | soluble |
| MLITDTLSPQAFEEALRAKGDFYHIHHPYHIAMHNGNATREQIQGWVANRFYYQTTIPLKDAAIMANCPDAQTRRKWVQRILDHDGSHGEDGGIEAWLRLGEAVGLSRDDLLSERHVLPGVRFAVDAYLNFARRACWQEAACSSLTELFAPQISQSRLDSWPQHYPWIKEEGYFYFRSRLSQANRDVEHGLALAKAYCDSAEKQNRMLEILQFKLDILWSMLDAMTMAYALQRPPYHTVTDKAAWHTTRLVLEHHHHH | soluble |
| MSPENPFLNHEKKEQERQAKRDAVLLAAVKIFNEQGFHSTSLDDVAKSLGISKPTIYHYLGNKEQVLLTCVEIGLQQLIEAAKDVEKQSISGFEKLRRFLFLYGCRNLDDFGRCVILTHDDALSKEGLVKFKALKRVVHEALLNIIRDAQLDQSINAEHDPKILAATLTGAINWSAKWYNPNGVLSKEETIQKMVDILTYGFEKK | not soluble |
| MSDPRPVVARCEGMFPADLARYEAQRTRKGGDLGHIDASRSHLNRPLLGEADWAKQAMAEIEAMRAENYADELEALQRRGRKKEIQKRMVEGPKDPWRASRHGPLREIILTAHKDWFNEIVFDGNRMDFAARERAFEDRAVAWLQQTFGDDIVHARADLDETTYHIHAVLVPRAVVKVNGATRRMLQPSIHPLIEDYEKLQDSVGAWFSAIGLARGEKRAEAIREAAAKGDPIPKKRHHCRPSDWRRRQEAEVIRQRAEVEAREAATAETAAALDARRADLAHHEERLAAEDARLSAVAATRRAEAGRLDHRVEAVVARETVADERMAEADAVLAVAEGPGAGAFDIDDAGGTPMLTERPENPSLLARLKRPVAGSDRGRARAVAALGAAWTRLRKAAGEAAEARLAREHEDLRKADEALLEVARTLPETARERIARARPTIARSLTGIGLTLRRLRGRDGGAQRDESGTGEKLEHHHHHH | soluble |
| MGSDKIHHHHHHMHTQVNELFSELWQNYVSVTPSAAKIHALLGSSQQDDVQNDHIALRTFNIEKINLDKLAAHFLALGYKENGEYHFEAKKLYAKHYEHPDPTQPKVFISELLLEKCSPELQAIVHKLVDQIDVAAVTADNFLYSGRHWSIDQATYNTLVKESEYAAWVSVWGFRANHFTVSVNALKNFETLVSVNDTLKAAGFALNTSGGEIKGSQEVMLKQSSTLADEALVEFTDGSKMVPSCFYEFARRFPMADGTLYPGFVAASADKIFESTNAR | not soluble |
| MSSLNKLAIDQLNLAGKRVLIRVDFNVPLKDGKITNNQRIAAAVPTIQHALSNGAKSVVLMSHLGRPDGRRQDKYTLKPVAEELKALLKKDVLFLDDCVGSEVEAACADPAPGSVILLENLRYHLEEEGKGVDASGAKVKADSAAVKKFRESLTKLGDIYVNDAFGTAHRAHSSMVGVEHSQRASGFLLKNELSYFSKALDNPARPFLAILGGAKVADKIQLIKNLLDKVNEMIIGGGMAYTFLKVAQGVKIGNSLYDEEGAKIVNELLEAAKAKGVQIHLPVDFVIADKFAEDATSKTVTAEEGVPDGHMGLDVGPESSKIFAAAIQRAKTIVWNGPAGVFEFDKFATGTKSLMDEVVKATAAGAITIIGGGDTATAAKKYNTEDKVSHVSTGGGASLELLEGKVLPGVDALSPAQ | soluble |
| TLREGWVVHYSNKDTLRKRHYWRLDCKCITLFQNNTTNRYYKEIPLSEILTVESAQNFSLVPPGTNPHCFEIVTANATYFVGEMPGGTPGGPSGQGAEAARGWETAIRQALM | soluble |
| TNHHQRALSYLQYGLDQGEGFIVITGPIGTGKTTIARNLLANIADENIVAAQLVTTKLTPNELLDLVAAEFKITVTGNSKADVLQSIEKFLINLNKQGKRALLLVDEAQNLPVETVEELRMLSNFQLDNKPLIQSFLLGQEELKAIISAPDMEQFRQRIIASAHLKP | not soluble |
| MISDRPGLPGEDMRLALLSFENYLLANRNTEKPVLHIALSPAPEDKLTDEQLAELAQNYMQKMGYGDQPYIAYKHGDTHNTHIHIVSVCVDEEGRKINDSFEHRRSMTACRELEIDFGLRNGADMEERNQKAEMKKVDATQGDVRHQIGNTLKAVLESYRFQTFGEYSALLSTLNIEAKQVRGEFKGEPYTGIIYSATDDSGKVVSPPFKSSRFGKRFGNERLEKRMLSHTRDFKDGKWAPTIHAQVVYAMRHARSREELAGLLKKARIDAVFRENEQGRIYGVTFIDHNRREVFNGSRMGKEFSANIYNELFKWWDGIPATERSAHTGTELWQHHSHKAESGSPLEQAASIFSMETNPVDYGEEALARRMKKRRKAKRKSRGILEHHHHHH | soluble |
| MGSDKIHHHHHHMQEQINLSEWRERARSFEQSANKVVLGLERQVRALTIAIFSRGHVLLEGDVGVGKTTLLKAASRLLGGAYQRIEGAIDLMPGDFLYHAYIDQNGQPAVAPGPLLRHEENLAVFFFNEINRARPQAHSLLLRLMAERSVNAFNRDYAFPHLTVFADRNGLEREETFELPAAARDRFFMEVSVTAPEDKELQRDLMFSTRFHDADALIETLEPGLVPYDKLNAVSAAIQESVRSELALQDYAVNIWQALRHPERIGIEIEDVDISRLVAGGASPRGMAMLMRAARTRAWLEGRDYLTPDDIRAVFPETVGHRVFFTPAYELRRDEIAPALLSGVLNKIPAP | not soluble |
| MSPEDAITRAELLRRREAGEVTLVDVRPHEEYQAGHIPGAINIPIAELADRLAELAGDRDIVAYCRGAYCVMAPDAVRIARDAGREVKRLDDGMLEWRLAGLPVDEGALEHHHHHH | not soluble |
| MKAIILAGGHSVRFGKPKAFAEVNGETFYSRVIKTLESTNMFNEIIISTNAQLATQFKYPNVVIDDENHNDKGPLAGIYTIMKQHPEEELFFVVSVDTPMITGKAVSTLYQFLVSHLIENHLDVAAFKEDGRFIPTIAFYSPNALGAITKALHSDNYSFKNIYHELSTDYLDVRDVDAPSYWYKNINYQHDLDALIQKLLEHHHHHH | soluble |
| MDAFSGIAGPLGRASELHRYEGNQTVVFCAGGVGLPPVYPIMREHLRLGNHVTLISGFRAKEFLFWTGDDERVGKLKKEFGDQLSLIYTTNDGSYGVKGFVTGPLEEMMKANQEGKGRSIAEVIAIGPPLMMRAVSDLTKPYGVKTVASLNSLEHHHHHH | soluble |
| MSDATLHATDQNPDDFAVQIADQIESFLVAVTEVAKGDEPDSAVPFLLLEVSQLMLAGGRLGAHEDIVPDERYEPDPGPELDVDEIRENLARILDPVDVYSEVFDPYEPRKAPVPARISDDLTDVITDLRHGMVHYKAGRTTEALWWWQFSYFSNWGSTASATLRALQSVVAHVRLNQPLEELDGLDTDQELGEETLESEAGRVMVREIAAPLGLRPVKLEHHHHHH | soluble |
| MGSDKIHHHHHHAQTLPFRLSKGAGTFRLGVVCGNESCWLDQCSVKKKGQAYTIKDKLWKEGEIKLIVCPLTDSNGFIMEVSGERLPEEFKLCWAFGACDGADDSAVTDNSIPVASCFHNVFSIEGNAFTTYYGESMKLRTVHGVSPIGSEIRLSDGHKQASPLALFNSGKKTDAPVISALCPWKPQEKLYFCFYQRGDYNYFMLPGLFGKEHKTRSK | not soluble |
